Like-named read-outs stand apart in the source and are kept apart here.
B1: LaG-19 (VHH)
VHH: QVQLVESGGGLVQAGGSLRLSCAASGPTGAMAWFRQAPGKEREFVGGISRSGTDTYYVDSVKGRFTIDRDNAKNTVYLQMNSLKPEDTAVYYCAARRSQILFTSRTDYEFWGQGTQVTVS
B2: LaG-35 (VHH)
VHH: DVQLVESGGGLVQAGGSLRLSCTVSGRTFSNYAMGWFRQAPGKEREFVAGISWTGGHTLYTDSVKGRFTISRDNAKNTVYLQMNSLKPEDTALYYCAADRAADFFAQRDEYDYWGQGTQVTVS
B3: LaG-37 (VHH)
VHH: QVQFVESGGGTVQDGDFLRLSCTASGDTFSNYHAGWFRQPPGREREFVAAISWTGEGTLYADSVKGQFTISRDNAKNAMYLQMNRLKPEDTAVYYCAAARSVGFTWRSSKSNDYAYWGQGTQVTV
B4: LaG-43 (VHH)
VHH: DVQLVESGGGLVQPGGSLRLSCEASGGAFSTVAMGWFRQAPGKEREFVGAITWTAGSTYYADSAKGRFTISRDNAKNTVHLQMNSLKPEDTAVYYCAQRVRGFFGPLRTTPSWYEYWGQGTQVTVS
B5: LaG-11 (VHH)
VHH: DVQLVESGGRSVRAGDSLRLSCLASGGTFSLYAMGWFRQAPGKEREFVAAVTWSGGSTYYTDSVKGRFSISRDNAKNTVYLQMNSLKPEDTAVYYCAVRTSGFFGSIPVTERAFDYWGQGTQVTVS
B6: LaG16-LaG2 (3xFLAG) (other)
single-chain fusion of two VHH (part 1 of 2): MAQVQLVESGGRLVQAGDSLRLSCAASGRTFSTSAMAWFRQAPGREREFVAAITWTVGNTILGDSVKGRFTISRDRAKNTVDLQMDNLEPEDTAVYYCSARSRGYVLSVLRSVDSYDYWGQGTQVTVS
single-chain fusion of two VHH (part 2 of 2): MAQVQLVESGGGLVQAGGSLRLSCAASGRTFSNYAMGWFRQAPGKEREFVAAISWTGVSTYYADSVKGRFTISRDNDKNTVYVQMNSLIPEDTAIYYCAAVRARSFSDTYSRVNEYDYWGQGTQVTV
notes: Member of the group m24; also called LaG16-LaG2 3xFLAG Dimer
B7: LaG41-LaG2 (G4S) (bispecific antibody)
single-chain fusion of two VHH: MADVQLVESGGGLVQAGGSLRLSCAASGPTGAMAWFRQAPGKEREFVGGISGSETDTYYVDSVKGRFTVDRDNVKNTVYLQMNSLKPEDTAVYYCAARRRITLFTSRTDYDFWGRGTQVTVGGGGSGGGGSGGGGSMAQVQLVESGGGLVQAGGSLRLSCAASGRTFSNYAMGWFRQAPGKEREFVAAISWTGVSTYYADSVKGRFTISRDNDKNTVYVQMNSLIPEDTAIYYCAAVRARSFSDTYSRVNEYDYWGQGTQVTV
notes: Member of the group m24; also called LaG41-LaG2 G4S Dimer
B8: LaM-1 (VHH)
VHH: QVQLVESGGGLVQAGDSLRLSCAASGRTFENYAMGWFRQAPGKEREFVGAVSWGGGRTYYADNVKGRFTISRDNAKKNTVYLQMNSLKPEDTAVYYCAAKSVLTIATMRVPDEYNYWGQGTQVTVS
B9: LaM-3 (VHH)
VHH: QVQLVQSGGGLVQAGGSLRLSCAASGRTFSDIAVGWFRQTPGKEREFVAAISWSGLIINYGDSVEDRFTISRDNAKSAVYLQMNSLKPEDTAVYYCAARIGMNYYYAREIEYPYWGQGTQVTVS
B10: LaM-6 (VHH)
VHH: QVQLVESGGGLVQAGGSLRLSCVASGSAPSFFAMAWYRQSPGNERELVAALSSLGSTNYADSVKGRFTISMDNAKNTVYLQMNNVNAEDTAVYYCAAGDFHSCYARKSCDYWGQGTQVTVS

Columns and labels:
DsRed [1] = biological target: T1, DsRed (Discosoma sp., UniProt Q9U6Y8 1-225); experiment: bead binding: nanobody-Dynabeads + fluorescent protein, eluate on SDS-PAGE
T1 construct: Recombinant fluorescent protein; construct not described; also called standard DsRed; DsRed from Discosoma (Ds)
T1 sequence (Q9U6Y8 whole entry): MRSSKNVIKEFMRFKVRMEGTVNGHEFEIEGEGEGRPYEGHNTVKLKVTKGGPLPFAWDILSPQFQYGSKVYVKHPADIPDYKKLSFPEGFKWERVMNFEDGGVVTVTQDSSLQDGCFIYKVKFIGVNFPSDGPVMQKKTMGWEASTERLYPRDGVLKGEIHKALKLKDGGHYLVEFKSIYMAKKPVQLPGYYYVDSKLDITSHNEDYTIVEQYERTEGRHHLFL

GFP-His6 (eGFP) [2] = biological target: T2, GFP-His6 (eGFP) (Aequorea victoria, UniProt P42212 2-238 = GFP); experiment: bead binding assay (footnote 1)
T2 construct: SPR and bead assays speak only of recombinant GFP or eGFP; also called recombinant GFP; A. victoria (Av) GFP

GFP-His6 (eGFP) [3] = biological target: T2, GFP-His6 (eGFP); experiment: label under gel lane; legend: in vitro Kd for GFP by SPR
GFP-His6 (eGFP) [4] = biological target: T2, GFP-His6 (eGFP); experiment: SPR, GFP immobilized
GFP-His6 (eGFP) [5] = biological target: T2, GFP-His6 (eGFP); experiment: SPR, GFP immobilized, Langmuir fit; no unit printed [continued]
GFP-His6 (eGFP) [6] = biological target: T2, GFP-His6 (eGFP); experiment: as above; remark: listed apart in the source
mCherry [7] = biological target: T3, mCherry (Discosoma); experiment: label under gel lane; legend: in vitro Kd for mCherry by SPR
T3 construct: Immunogen is mCherry-His6; SPR says recombinant mCherry; also called recombinant mCherry-His6; Discosoma mCherry

mCherry [8] = biological target: T3, mCherry; experiment: SPR, mCherry immobilized
GFP-His6 (eGFP) [9] = biological target: T2, GFP-His6 (eGFP); experiment: bead binding: nanobody-Dynabeads + fluorescent protein, eluate on SDS-PAGE
DsRed [10] = biological target: T1, DsRed; experiment: as above; remark: listed apart in the source
mCherry [11] = biological target: T3, mCherry; experiment: SPR, mCherry immobilized, Langmuir fit; unit inferred

| Binder | Kd (GFP-His6 (eGFP) [2]) | Kd (GFP-His6 (eGFP) [3]) | Kd (GFP-His6 (eGFP) [4]) | Kd (GFP-His6 (eGFP) [6]) | Kd (mCherry [7]) | Kd (mCherry [8]) | binding result (GFP-His6 (eGFP) [9]) | Kd (mCherry [11]) | also measured |
| --- | --- | --- | --- | --- | --- | --- | --- | --- | --- |
| B1 | 24.6 nM |  |  |  |  |  |  |  | binding result (DsRed [1]): no binding |
| B2 | 23.5 nM | 24 nM |  |  |  |  |  |  |  |
| B3 |  | 25 nM | 24 nM |  |  |  |  |  | Kd (GFP-His6 (eGFP) [5]): 24 nM |
| B4 |  | 13 nM | 11 nM | 11 nM |  |  |  |  |  |
| B5 | 22900 nM | 22900 nM |  |  |  |  |  |  |  |
| B6 |  |  | 0.268 nM | 0.27 nM |  |  |  |  |  |
| B7 |  |  | 0.15 nM | 0.15 nM |  |  |  |  |  |
| B8 |  |  |  |  | 22 nM | 22 nM | no binding | 22 nM | binding result (DsRed [10]): no binding |
| B9 |  |  |  |  | 1.9 nM | 1.9 nM | no binding | 1.9 nM |  |
| B10 |  |  |  |  | 0.26 nM | 0.26 nM | no binding | 0.26 nM | binding result (DsRed [10]): no binding |
